Experimental data taken from publication PMC5896254.

Legend:
[1] = target: RAB11A (endogenous, HeLa) (UniProt P62491); assay: GFP-TRAP pull-down, quantified immunoblot; conditions: HeLa cells starved for 2 hr; n = 5; parent: est. 1.0; read off a plot
WIPI2 (endogenous, HeLa) = assay: GFP-TRAP pull-down, quantified immunoblot; conditions: HeLa cells starved for 1 hr; n = 3; parent: est. 0.10; read off a plot
[2] = target: T1, recombinant human HIS-RAB11A, P62491; assay: liposome sedimentation assay; conditions: chain shown with the change; in vitro; RAB11A-containing liposomes; n = 4; parent: est. 100; read off a plot
T1 chain: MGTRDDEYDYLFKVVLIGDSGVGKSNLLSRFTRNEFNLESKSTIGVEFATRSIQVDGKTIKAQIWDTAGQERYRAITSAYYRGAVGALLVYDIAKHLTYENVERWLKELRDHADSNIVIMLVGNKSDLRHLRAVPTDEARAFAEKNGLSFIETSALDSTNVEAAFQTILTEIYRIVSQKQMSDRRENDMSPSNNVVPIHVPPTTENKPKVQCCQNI

GFP-WIPI2 Y120F; I121E
response [1]: 0.1 au

GFP-WIPI2 L115A; E116T
response [1]: 0.42 au

GFP-RAB11A (from UniProt P62491) Q70L
response (WIPI2 (endogenous, HeLa)): 0.15 au

GFP-RAB11A (from UniProt P62491) S25N
response (WIPI2 (endogenous, HeLa)): 0.045 au

B1: WIPI2-FLAG WT R224T; R225T (protein)
chain: MNLASQSGEAGAGQLLFANFNQDNTSLAVGSKSGYKFFSLSSVDKLEQIYECTDTEDVCIVERLFSSSLVAIVSLKAPRKLKVCHFKKGTEICNYSYSNTILAVKLNRQRLIVCLEESLYIHNIRDMKVLHTIRETPPNPAGLCALSINNDNCYLAYPGSATIGEVQVFDTINLRAANMIPAHDSPLAALAFDASGTKLATASEKGTVIRVFSIPEGQKLFEFTTGVKRCVSICSLAFSMDGMFLSASSNTETVHIFKLETVKEKPPEEPTTWTGYFGKVLMASTSYLPSQVTEMFNQGRAFATVRLPFCGHKNICSLATIQKIPRLLVGAADGYLYMYNLDPQEGGECALMKQHRLDGSLETTNEILDSASHDCPLVTQTYGAAAGKGTYVPSSPTRLAYTDDLGAVGGACLEDEASALRLDEDSEHPPMILRTD
percent of parent [2]: 92 % WT

B2: WIPI2-FLAG WT L115A; E116T (protein)
chain: MNLASQSGEAGAGQLLFANFNQDNTSLAVGSKSGYKFFSLSSVDKLEQIYECTDTEDVCIVERLFSSSLVAIVSLKAPRKLKVCHFKKGTEICNYSYSNTILAVKLNRQRLIVCATESLYIHNIRDMKVLHTIRETPPNPAGLCALSINNDNCYLAYPGSATIGEVQVFDTINLRAANMIPAHDSPLAALAFDASGTKLATASEKGTVIRVFSIPEGQKLFEFRRGVKRCVSICSLAFSMDGMFLSASSNTETVHIFKLETVKEKPPEEPTTWTGYFGKVLMASTSYLPSQVTEMFNQGRAFATVRLPFCGHKNICSLATIQKIPRLLVGAADGYLYMYNLDPQEGGECALMKQHRLDGSLETTNEILDSASHDCPLVTQTYGAAAGKGTYVPSSPTRLAYTDDLGAVGGACLEDEASALRLDEDSEHPPMILRTD
percent of parent [2]: 43 % WT

B3: WIPI2-FLAG WT Y120F; I121E (protein)
chain: MNLASQSGEAGAGQLLFANFNQDNTSLAVGSKSGYKFFSLSSVDKLEQIYECTDTEDVCIVERLFSSSLVAIVSLKAPRKLKVCHFKKGTEICNYSYSNTILAVKLNRQRLIVCLEESLFEHNIRDMKVLHTIRETPPNPAGLCALSINNDNCYLAYPGSATIGEVQVFDTINLRAANMIPAHDSPLAALAFDASGTKLATASEKGTVIRVFSIPEGQKLFEFRRGVKRCVSICSLAFSMDGMFLSASSNTETVHIFKLETVKEKPPEEPTTWTGYFGKVLMASTSYLPSQVTEMFNQGRAFATVRLPFCGHKNICSLATIQKIPRLLVGAADGYLYMYNLDPQEGGECALMKQHRLDGSLETTNEILDSASHDCPLVTQTYGAAAGKGTYVPSSPTRLAYTDDLGAVGGACLEDEASALRLDEDSEHPPMILRTD
percent of parent [2]: 38 % WT
